In publication PMC4449183, “Structural-Functional Analysis Reveals a Specific Domain Organization in Family GH20 Hexosaminidases” (PLoS ONE, 2015):

T1: Construct A (residues 40–528) of B. bifidum lacto-N-biosidase, GH20b-GH20-α (Bifidobacterium bifidum (strain DSM …, UniProt B3TLD6))
T1 chain: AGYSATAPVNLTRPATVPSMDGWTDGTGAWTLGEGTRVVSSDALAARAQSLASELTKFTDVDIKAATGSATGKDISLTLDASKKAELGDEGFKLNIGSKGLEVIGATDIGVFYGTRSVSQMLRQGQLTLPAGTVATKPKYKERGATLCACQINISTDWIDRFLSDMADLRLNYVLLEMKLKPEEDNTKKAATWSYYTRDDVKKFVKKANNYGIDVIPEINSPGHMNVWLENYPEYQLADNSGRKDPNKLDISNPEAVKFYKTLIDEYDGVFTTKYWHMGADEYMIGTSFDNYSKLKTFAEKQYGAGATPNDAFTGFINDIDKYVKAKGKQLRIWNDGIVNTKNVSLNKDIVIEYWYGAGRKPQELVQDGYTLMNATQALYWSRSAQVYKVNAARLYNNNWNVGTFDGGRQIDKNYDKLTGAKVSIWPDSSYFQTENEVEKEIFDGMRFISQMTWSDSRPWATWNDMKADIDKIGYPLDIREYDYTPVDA

B1: Construct F (546–776) of B. bifidum lacto-N-biosidase, the single lectin domain (domain or fragment, Bifidobacterium bifidum, UniProt B3TLD6 546-776, looked up)
chain: LITTPDGYYQMKDTVSGKCLALFTGSKHLDVVTQVGARPELRNCADVSVGQDQRNTANERNTQKWQIRADKDGKYTISPALTQQRLAIATGNEQNIDLETHRPAAGTVAQFPADLVSDNALFTLTGHMGMSATVDSKTVNPASPSKITVKVRAASNANTGDVTVTPVVPEGWEIKPGSVSLKSIPAGKAAIAYFNVVNTTGTGDATVQFKLTNTKTGEELGTTSVALTGSL
B2: Construct A (residues 40–528) of B. bifidum lacto-N-biosidase, GH20b-GH20-α (domain or fragment, Bifidobacterium bifidum, UniProt B3TLD6 40-528, looked up)
chain: T1 chain
notes: Lacto-N-biosidase (LnbB), Bifidobacterium bifidum, residues 40-528 (GH20b and GH20 domains with the extra α-helix); synthetic codon-optimised gene in pET28a+ (NdeI/Bpu1102); Mainly dimeric in solution by gel filtration; theoretical mass 57 kDa; also called GH20b-GH20-α construct; source: E. coli BL21 (DE3) star, purified (Ni2+ HiTrap chelating column, Superdex 200)

What was measured:
[1] = molecular target: B2; experiment: cell-based or functional assay
[2] = molecular target: T1, Construct A (residues 40–528) of B. …; experiment: SEC co-elution with SDS-PAGE, plus activity complementation assay
[3] = molecular target: the molecule itself; experiment: SEC; single purified proteins on XK16/60 Superdex 200 in buffer A (Na2HPO4 20 mM, NaCl 150 mM, pH 7.5)

| hydrolytic activity on p-nitrophenyl β-lacto-N-bioside of 50 nM construct A with 25 nM-500 nM construct F (pH 4.5, 30°C), relative to the full length enzyme; levels off at a molar ratio of 1:6 [1] [%] | binding result [2] | Binder | stoichiometry N [3] |
| --- | --- | --- | --- |
| 11 | binds | B1 | – |
| – | – | B2 | 2 |
